Consider one molecule from paper PMC3414502 (2012).

For the assay, the target named is PLCβ2 (Homo sapiens, UniProt Q00722). Description: fluorescence titration.

For orientation: Kd means the concentration at which binding is half-saturated. A lower Kd goes with higher affinity.

PLCβ2, sequence (Q00722 whole entry): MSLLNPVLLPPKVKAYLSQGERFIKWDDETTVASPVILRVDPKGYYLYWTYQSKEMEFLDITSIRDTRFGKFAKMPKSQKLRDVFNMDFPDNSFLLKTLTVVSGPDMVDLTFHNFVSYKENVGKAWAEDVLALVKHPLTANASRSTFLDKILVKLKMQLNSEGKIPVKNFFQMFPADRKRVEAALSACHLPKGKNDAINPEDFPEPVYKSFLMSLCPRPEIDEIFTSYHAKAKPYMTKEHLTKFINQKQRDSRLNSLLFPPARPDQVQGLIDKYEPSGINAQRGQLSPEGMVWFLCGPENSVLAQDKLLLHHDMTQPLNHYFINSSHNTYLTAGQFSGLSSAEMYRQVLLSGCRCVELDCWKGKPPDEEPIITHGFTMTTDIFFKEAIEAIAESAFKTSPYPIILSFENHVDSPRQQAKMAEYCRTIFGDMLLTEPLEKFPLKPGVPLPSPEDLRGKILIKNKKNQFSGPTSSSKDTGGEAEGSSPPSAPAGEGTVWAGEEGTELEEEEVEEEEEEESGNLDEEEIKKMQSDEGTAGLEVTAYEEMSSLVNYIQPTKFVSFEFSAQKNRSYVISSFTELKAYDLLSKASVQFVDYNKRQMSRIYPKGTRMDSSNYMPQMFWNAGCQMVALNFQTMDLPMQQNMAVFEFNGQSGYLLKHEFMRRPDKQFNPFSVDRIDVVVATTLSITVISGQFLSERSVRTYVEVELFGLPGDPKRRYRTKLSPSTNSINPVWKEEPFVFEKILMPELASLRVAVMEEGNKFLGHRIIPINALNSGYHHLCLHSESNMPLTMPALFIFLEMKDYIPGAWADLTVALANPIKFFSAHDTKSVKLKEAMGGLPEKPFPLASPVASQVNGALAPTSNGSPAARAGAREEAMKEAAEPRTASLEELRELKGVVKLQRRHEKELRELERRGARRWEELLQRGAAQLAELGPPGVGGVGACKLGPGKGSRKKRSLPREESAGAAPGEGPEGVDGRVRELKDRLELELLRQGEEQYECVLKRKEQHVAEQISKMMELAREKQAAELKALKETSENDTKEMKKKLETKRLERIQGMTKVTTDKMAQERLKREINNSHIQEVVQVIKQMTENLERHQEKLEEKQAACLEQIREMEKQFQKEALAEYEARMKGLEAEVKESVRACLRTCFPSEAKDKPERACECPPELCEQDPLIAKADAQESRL

B1: Gαq (activated) (protein)
chain: MTLESIMACCLSEEAKEARRINDEIERQLRRDKRDARRELKLLLLGTGESGKSTFIKQMRIIHGSGYSDEDKRGFTKLVYQNIFTAMQAMIRAMDTLKIPYKYEHNKAHAQLVREVDVEKVSAFENPYVDAIKSLWNDPGIQECYDRRREYQLSDSTKYYLNDLDRVADPSYLPTQQDVLRVRVPTTGIIEYPFDLQSVIFRMVDVGGQRSERRKWIHCFENVTSIMFLVALSEYDQVLVESDNENRMEESKALFRTIITYPWFQNSSVILFLNKKDLLEEKIMYSHLVDYFPEYDGPQRDAQAAREFILKMFVDLNPDSDKIIYSHFTCATDTENIRFVFAAVKDTILQLNLKEYNLV
modifications: activated Gαq, with γ-synuclein
The molecule B1 showed a Kd of 0.9 nM.
